B1: Protein piccolo, PDZ domain (N2H construct) (domain or fragment)
chain: RIKITRDSKDHTVSGNGLGIRIVGGKEIPGHSGEIGAYIAKILPGGSAEQTGKLMEGMQVLEWNGIPLTSKTYEEVQSIISQQSGEAEICVRLDL
B2: Ligand of Numb protein X 2, PDZ domain 2 (N2H construct) (domain or fragment)
chain: QVALHKRDSGEQLGIKLVRRTDEPGVFILDLLEGGLAAQDGRLSSNDRVLAINGHDLKYGTPELAAQIIQASGERVNLTIARPG
B3: PDZ domain-containing protein 2, PDZ domain 2 (N2H construct) (domain or fragment)
chain: KMELLKESDGLGIQVSGGRGSKRSPHAIVVTQVKEGGAAHRDGRLSLGDELLVINGHLLVGLSHEEAVAILRSATGMVQLVVASKE
B4: Rho GTPase-activating protein 21, PDZ domain (N2H construct) (domain or fragment)
chain: TVTLKRTSQGFGFTLRHFIVYPPESAIQFSYKDEENGNRGGKQRNRLEPMDTIFVKQVKEGGPAFEAGLCTGDRIIKVNGESVIGKTYSQVIALIQNSDTTLELSVMPKD
B5: Regulating synaptic membrane exocytosis protein 2, PDZ domain (N2H construct) (domain or fragment)
chain: DGSVPRDSGAMLGLKVVGGKMTESGRLCAFITKVKKGSLADTVGHLRPGDEVLEWNGRLLQGATFEEVYNIILESKPEPQVELVVSR
B6: SH3 and multiple ankyrin repeat domains protein 1, PDZ domain (N2H construct) (domain or fragment)
chain: TVLLQKKDSEGFGFVLRGAKAQTPIEEFTPTPAFPALQYLESVDEGGVAWRAGLRMGDFLIEVNGQNVVKVGHRQVVNMIRQGGNTLMVKVVMVT
B7: PDZ domain-containing protein GIPC3, PDZ domain (N2H construct) (domain or fragment)
chain: EVEVTKTEDALGLTITDNGAGYAFIKRIKEGSIINRIEAVCVGDSIEAINDHSIVGCRHYEVAKMLRELPKSQPFTLRLVQ
B8: MPDZ, PDZ domain 6 (N2H construct) (domain or fragment)
chain: TINIAKGNSSLGMTVSANKDGLGMIVRSIIHGGAISRDGRIAIGDCILSINEESTISVTNAQARAMLRRHSLIGPDIKITYV
B9: Rho guanine nucleotide exchange factor 12, PDZ domain (N2H construct) (domain or fragment)
chain: CVIIQKDDNGFGLTVSGDNPVFVQSVKEDGAAMRAGVQTGDRIIKVNGTLVTHSNHLEVVKLIKSGSYVALTVQGRPPGS
B10: Zona Occludens 3; Tight Junction Protein 3, PDZ domain 1 (N2H construct) (domain or fragment)
chain: TATLSKDPRRGFGIAISGGRDRPGGSMVVSDVVPGGPAEGRLQTGDHIVMVNGVSMENATSAFAIQILKTCTKMANITVKRPR
B11: T-lymphoma invasion and metastasis-inducing protein 2, PDZ domain (N2H construct) (domain or fragment)
chain: DVQLTKTGSVCDFGFAVTAQVDERQHLSRIFISDVLPDGLAYGEGLRKGNEIMTLNGEAVSDLDLKQMEALFSEKSVGLTLIARPPD
B12: PDZ and LIM domain protein 1, PDZ domain (N2H construct) (domain or fragment)
chain: TQQIDLQGPGPWGFRLVGGKDFEQPLAISRVTPGSKAALANLCIGDVITAIDGENTSNMTHLEAQNRIKGCTDNLTLTVARSE
B13: 26S proteasome non-ATPase regulatory subunit 9, PDZ domain (N2H construct) (domain or fragment)
chain: QARDMAEAHKEAMSRKLGQSESQGPPRAFAKVNSISPGSPASIAGLQVDDEIVEFGSVNTQNFQSLHNIGSVVQHSEGKPLNVTVIRR
B14: PDZ domain-containing protein 4, PDZ domain (N2H construct) (domain or fragment)
chain: EVELYKSSHRDKLGLMVCYRTDDEEDLGIYVGEVNPNSIAAKDGRIREGDRIIQINGVDVQNREEAVAILSQEENTNISLLVARP
B15: SH3 and multiple ankyrin repeat domains protein 2, PDZ domain (N2H construct) (domain or fragment)
chain: TVVLQKKDNEGFGFVLRGAKADTPIEEFTPTPAFPALQYLESVDEGGVAWQAGLRTGDFLIEVNNENVVKVGHRQVVNMIRQGGNHLVLKVVTVT
B16: Partitioning defective 3 homolog B, PDZ domain 1 (N2H construct) (domain or fragment)
chain: TRTVEISGEGGPLGIHVVPFFSSLSGRILGLFIRGIEDNSRSKREGLFHENECIVKINNVDLVDKTFAQAQDVFRQAMKSPSVLLHVLP
B17: Synaptojanin-2-binding protein, PDZ domain (N2H construct) (domain or fragment)
chain: EINLTRGPSGLGFNIVGGTDQQYVSNDSGIYVSRIKENGAAALDGRLQEGDKILSVNGQDLKNLLHQDAVDLFRNAGYAVSLRVQHRL
B18: Zona Occludens 3; Tight Junction Protein 3, PDZ domain 3 (N2H construct) (domain or fragment)
chain: DTRVVRFLKGKSIGLRLAGGNDVGIFVSGVQAGSPADGQGIQEGDQILQVNDVPFQNLTREEAVQFL
B19: SH3 and multiple ankyrin repeat domains protein 3, PDZ domain (N2H construct) (domain or fragment)
chain: VAVLQKRDHEGFGFVLRGAKAETPIEEFTPTPAFPALQYLESVDVEGVAWRAGLRTGDFLIEVNGVNVVKVGHKQVVALIRQGGNRLVMKVVSVT
B20: Beta-1-syntrophin, PDZ domain (N2H construct) (domain or fragment)
chain: GVKVLKQELGGLGISIKGGKENKMPILISKIFKGLAADQTQALYVGDAILSVNGADLRDATHDEAVQALKRAGKEVLLEVKYMR
B21: Whirlin, PDZ domain 3 (N2H construct) (domain or fragment)
chain: LVRVKKSAATLGIAIEGGANTRQPLPRIVTIQRGGSAHNCGQLKVGHVILEVNGLTLRGKEHREAARIIAEAFKTKDRDYIDFL
B22: MAGUK p55 subfamily member 5, PDZ domain (N2H construct) (domain or fragment)
chain: IVRIEKARDIPLGATVRNEMDSVIISRIVKGGAAEKSGLLHEGDEVLEINGIEIRGKDVNEVFDLLSDMHGTLTFVLIPSQ
B23: Membrane-associated guanylate kinase, WW and PDZ domain-containing protein 2, PDZ domain 1 (N2H construct) (domain or fragment)
chain: ESVIGRNPEGQLGFELKGGAENGQFPYLGEVKPGKVAYESGSKLVSEELLLEVNETPVAGLTIRDVLAVIKHCKDPLRLKCVKQG

Molecular target: full-length (FL) NS5 protein (wt PBM) of West Nile virus (West Nile virus)
Experiment: split reporter (BiFC, NanoBiT); N2H split-NanoLuc in HEK-293T cells; full-length NS5 with 257 single PDZ domains; read-out NLR with NS5 minus NLR with NS5ΔPBM, three experiments; hits > 0.25

Binder	NLR(NS5) - NLR(NS5ΔPBM)
B1	0.57
B2	0.25
B3	0.49
B4	< 0.25
B5	11.2
B6	1.66
B7	2.15
B8	0.38
B9	< 0.25
B10	3.05
B11	0.65
B12	27.2
B13	1.21
B14	0.85
B15	< 0.25
B16	0.42
B17	< 0.25
B18	0.72
B19	< 0.25
B20	< 0.25
B21	0.38
B22	0.26
B23	0.26

Reference: paper PMC7865074
